In PMC2783421 (Developmental biology, 2009):

T1: His6-tagged ERK2 (Dictyostelium discoideum, UniProt Q54QB1 1-369)
T1 sequence (looked up): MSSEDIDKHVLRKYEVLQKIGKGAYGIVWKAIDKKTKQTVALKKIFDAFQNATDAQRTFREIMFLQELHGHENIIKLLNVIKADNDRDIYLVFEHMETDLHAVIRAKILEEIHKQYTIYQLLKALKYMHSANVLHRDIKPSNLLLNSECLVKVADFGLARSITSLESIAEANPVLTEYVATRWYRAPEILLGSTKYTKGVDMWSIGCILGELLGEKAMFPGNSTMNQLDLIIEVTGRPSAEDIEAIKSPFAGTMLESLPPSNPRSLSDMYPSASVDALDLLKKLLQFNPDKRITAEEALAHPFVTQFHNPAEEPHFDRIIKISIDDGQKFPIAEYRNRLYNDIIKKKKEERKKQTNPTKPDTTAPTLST

B1: Myc-tagged Gα4 subunit (wild type) (natural protein, Dictyostelium discoideum, UniProt P34042 1-345, looked up)
chain: MRFKCFGSEETEQSSKIDKSIETDRRKLRKDVKLLLLGPGESGKSTIFKQMKIIQEDGGYSVEELLEYRAFVYSNCISQMEALLTASAKLNIELEVENKQRAANVLRRTIGNEPWLLLAADIKHLWEDKGIKETYAQKDKHFQLNDSAAYFFDNIDRYMREDFVPNEQDVLRCRVRTTGIQESEFTFDKIRLKIVDVGGQRSQRRKWIHCFDCVTAVIFVAAMSDYDQVLREDESVNRTRESLALFKEIVNCDYFKETPIVLFLNKKDLFKEKLKRVPLQSCFSDYTGPNKYKDAAMFIQSQYLAQGPSPRTIYTHATCAVDTENIKFVFRAVRQTILSQALEHF
B2: Myc-tagged Gα4^(R107E, R108E, Q200L) subunit (natural protein, Dictyostelium discoideum, UniProt P34042 1-345, looked up)
chain: MRFKCFGSEETEQSSKIDKSIETDRRKLRKDVKLLLLGPGESGKSTIFKQMKIIQEDGGYSVEELLEYRAFVYSNCISQMEALLTASAKLNIELEVENKQRAANVLEETIGNEPWLLLAADIKHLWEDKGIKETYAQKDKHFQLNDSAAYFFDNIDRYMREDFVPNEQDVLRCRVRTTGIQESEFTFDKIRLKIVDVGGLRSQRRKWIHCFDCVTAVIFVAAMSDYDQVLREDESVNRTRESLALFKEIVNCDYFKETPIVLFLNKKDLFKEKLKRVPLQSCFSDYTGPNKYKDAAMFIQSQYLAQGPSPRTIYTHATCAVDTENIKFVFRAVRQTILSQALEHF
B3: Myc-tagged Gα4^R107E,R108E subunit (altered D-motif) (natural protein, Dictyostelium discoideum, UniProt P34042 1-345, looked up)
chain: MRFKCFGSEETEQSSKIDKSIETDRRKLRKDVKLLLLGPGESGKSTIFKQMKIIQEDGGYSVEELLEYRAFVYSNCISQMEALLTASAKLNIELEVENKQRAANVLEETIGNEPWLLLAADIKHLWEDKGIKETYAQKDKHFQLNDSAAYFFDNIDRYMREDFVPNEQDVLRCRVRTTGIQESEFTFDKIRLKIVDVGGQRSQRRKWIHCFDCVTAVIFVAAMSDYDQVLREDESVNRTRESLALFKEIVNCDYFKETPIVLFLNKKDLFKEKLKRVPLQSCFSDYTGPNKYKDAAMFIQSQYLAQGPSPRTIYTHATCAVDTENIKFVFRAVRQTILSQALEHF
B4: Myc-tagged constitutively active Gα4^Q200L subunit (natural protein, Dictyostelium discoideum, UniProt P34042 1-345, looked up)
chain: MRFKCFGSEETEQSSKIDKSIETDRRKLRKDVKLLLLGPGESGKSTIFKQMKIIQEDGGYSVEELLEYRAFVYSNCISQMEALLTASAKLNIELEVENKQRAANVLRRTIGNEPWLLLAADIKHLWEDKGIKETYAQKDKHFQLNDSAAYFFDNIDRYMREDFVPNEQDVLRCRVRTTGIQESEFTFDKIRLKIVDVGGLRSQRRKWIHCFDCVTAVIFVAAMSDYDQVLREDESVNRTRESLALFKEIVNCDYFKETPIVLFLNKKDLFKEKLKRVPLQSCFSDYTGPNKYKDAAMFIQSQYLAQGPSPRTIYTHATCAVDTENIKFVFRAVRQTILSQALEHF

target: T1, His6-tagged ERK2; assay: pull-down

Going from B1 to B2, the “pull-down yield (percent of the cell extract)” value falls from roughly 22% to roughly 4%.

B3 and B4 are the same in “pull-down yield (percent of the cell extract)” value: roughly 9% for the first, roughly 9% for the second.
